Source: the RNAGym collection of RNA variant scans (doi:10.1073/pnas.2313332121)
This sample holds only a part of the variants without activity.

B1: TPR 5TU (parent)
chain: GGAUCUUCUCGAUCUAACAAAAAAGACAAAUCUGCCACAAAGCUUGAGAGCAUCUUCGGAUGCAGAGGCGGCAGCCUUCGGUGGCGCGAUAGCGCCAACGUUCUCAACUAUGACACGCAAAACGCGUGCUCCGUUGAAUGGAGUUUAUCAUG

Variants of: B1
Assay: polymerase ribozyme fitness, log enrichment relative to wild type (log ratio); higher = more active; in vitro selection for triplet polymerase activity
Procedure, shortened: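 After PCR construction and transcription, each subunit's mutant library from a heterodimeric triplet polymerase ribozyme was annealed with a biotinylated primer, the partner subunit and triplets. Incubation was frozen, at −7 °C, and extended constructs were gel-excised, bound to streptavidin beads and amplified by RT-PCR, in one selection round done in triplicate. Fitness is the logarithm of a genotype's enrichment divided by that of the wild type, from inverse-variance-weighted replicate averages of Illumina-sequenced inputs and outputs. The base of the logarithm is 2, and genotypes needed ≥10 input reads and ≥1 read per output.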

Row | Variant | polymerase ribozyme fitness (log ratio)
1 | A49C G88U A106U | ≤ -4.2
2 | A17G U31A | 0.512
3 | G80U C93G | -2.97
4 | A28U G84U G86A G94A A98G C131A | ≤ -4.2
5 | C87A C93G | ≤ -4.2
6 | C87U G92U A97U C99G | ≤ -4.2
7 | G25U G68U G83U U104G A115C | ≤ -4.2
8 | C10A A19G C57A G59A U82A C85U G141C | ≤ -4.2
9 | A20C A29C G92U C149G | ≤ -4.2
10 | G83U C93G A121U | ≤ -4.2
11 | A29U C32G C75U U77G G80A | ≤ -4.2
12 | G48U U148C | -3.36
13 | C18U A49U | -1.09
14 | C10U C125U | -3.3
15 | U15C A22C C118A U144A | -0.0778
16 | G50U A122G U135A | -0.743
17 | U9A A16C C85A C87A | ≤ -4.2
18 | C27G C96U | -3.97
19 | A23U A52C | ≤ -4.2
20 | G11C A30G U53A G58A C95A | ≤ -4.2
21 | G48A U61A | -2.86

Row | Variant | polymerase ribozyme fitness (log ratio)
22 | U56A G92A A150G | -2.08
23 | U6A A17G G58C A60C C69U C118U U146C | -4.14
24 | C72U U78A G84A | ≤ -4.2
25 | A16U C93A | -3.85
26 | U33A C63U C93A A97G G126C | ≤ -4.2
27 | C93U G124U | -2.66
28 | U9A A20U C36A A52C A113U G124C | ≤ -4.2
29 | A49U C75U G80A C96U A97C U145A U146G U148G | ≤ -4.2
30 | C54U U82C U90C C96A U101G | ≤ -4.2
31 | C57U C63A | 0.923
32 | A37G C96G | -1.89
33 | A3U A30G A49C | ≤ -4.2
34 | A16C C108U A147U | -3.42
35 | C32A A39G G50U U55A A73U C75A A138U | ≤ -4.2
36 | A3G U56A C96A U134A | -3.26
37 | C75G C76G G92C | ≤ -4.2
38 | A24U C114G | -3.34
39 | U4A A41C U61A C63G A64C C72A C96G | ≤ -4.2
40 | U104G C118G | -1.89
41 | C87A A98U | -4.12
42 | A19U C93U | -0.795

Row | Variant | polymerase ribozyme fitness (log ratio)
43 | C18U A19G A21C C35U U55A G92C A147U | -2.94
44 | A66G C87A | ≤ -4.2
45 | G50U C85G | -3.51
46 | C27G G58U C76A G86A U90C A106U C125U G136C | ≤ -4.2
47 | A12C A66C | ≤ -4.2
48 | A12U A19U A37U U55A | -3.16
49 | C18U G92U A97G U146A | -2.16
50 | G11U A29C C35U U45A A66G A91U | -3.98
51 | U6G U45C C76A C93G C103A | ≤ -4.2
52 | A52C U145G | -1.17
53 | C85U C123U U127C | -1.83
54 | C38U A39C G92U | -2.59
55 | A19G C54A | -1.26
56 | A91C A115G | -4.07
57 | A29U C54U U56G C57U C93U C103U G133A | ≤ -4.2
58 | C35U G50U C93G | -3.56
59 | A22G G86U | -0.647
60 | U6A U7G U13A C35A C54A G71U A91U U101A U127C G141U | ≤ -4.2
61 | A24U U44G A66C G143A | -4.09
62 | U31G G34A U61A C85G | ≤ -4.2
63 | A52U U55A C87G | ≤ -4.2

Row | Variant | polymerase ribozyme fitness (log ratio)
64 | A52U U55G C87A A119U | ≤ -4.2
65 | U4C A24U U61A | -1.7
66 | A26U A107G G141A | ≤ -4.2
67 | A21U A26C A52C C54U G62A G68A G83C U139G | ≤ -4.2
68 | A26U C63G G80C C85G U109G A122U | ≤ -4.2
69 | U55A G81A C87U G136A | 0.0612
70 | G48A G50U U55A | -2.15
71 | A29U U61A G67A C96U | ≤ -4.2
72 | C5U C63G A73G G81C C105U A115C A138C | ≤ -4.2
73 | C27U U101C | -0.938
74 | U53A A91C U101C | ≤ -4.2
75 | C14U U55G | -1.61
76 | A20G U53G G74A C93A | ≤ -4.2
77 | C123U G141U | -0.894
78 | U9C A28G C38A C54G G88C C103A | ≤ -4.2
79 | C87U C99G U127A | ≤ -4.2
80 | G42C U53G G71A G92C C105G A137G | ≤ -4.2
81 | C10U A12U A21C A39U G71A A106C C125G G141A | ≤ -4.2
82 | U55G G58C C116U G143A | -1.24
83 | C14A A26U U77G G84U A115C A147G U148G | ≤ -4.2
